T1: recombinant monkey TfR (r monkey TfR: Sino Biological Inc.) (cynomolgus monkey (Macaca fascicularis), UniProt Q5RDH6 89-760 (Pongo abelii entry))
T1 construct: Bought product; also called r monkey TfR-ECD (Histag); cynomolgus monkey TfR; not shown: histidine tag attached to the N-terminus
T1 chain: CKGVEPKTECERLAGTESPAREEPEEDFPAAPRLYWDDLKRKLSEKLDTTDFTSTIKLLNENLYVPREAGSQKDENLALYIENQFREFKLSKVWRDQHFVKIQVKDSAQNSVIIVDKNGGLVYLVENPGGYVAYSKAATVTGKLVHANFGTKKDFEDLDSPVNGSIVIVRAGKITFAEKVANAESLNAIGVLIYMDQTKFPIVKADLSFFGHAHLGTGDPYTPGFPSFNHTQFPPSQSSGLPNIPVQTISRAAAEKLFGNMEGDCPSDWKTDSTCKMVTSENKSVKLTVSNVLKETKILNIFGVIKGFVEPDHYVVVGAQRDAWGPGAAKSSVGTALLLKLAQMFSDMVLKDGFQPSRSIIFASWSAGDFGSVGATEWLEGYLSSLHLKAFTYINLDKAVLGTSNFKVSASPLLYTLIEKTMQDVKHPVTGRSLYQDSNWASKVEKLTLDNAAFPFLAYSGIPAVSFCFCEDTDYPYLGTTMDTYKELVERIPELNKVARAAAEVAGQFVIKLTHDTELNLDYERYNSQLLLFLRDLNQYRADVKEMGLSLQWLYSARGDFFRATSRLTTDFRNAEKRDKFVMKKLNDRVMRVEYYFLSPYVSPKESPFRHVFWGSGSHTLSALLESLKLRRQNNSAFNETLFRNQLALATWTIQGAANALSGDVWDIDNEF

B1: humanized anti-hTfR antibody No. 2 (antibody, human IgG1, kappa, V domains shown)
VH: QVQLVQSGAEVKKPGASVKVSCKASGYTFTDYVMHWVRQAPGQGLEWIGVISTYYGHGSYNQRFKGRATMTVDKSISTAYMELVRLRSDDTAVYYCVRGGYGSSSLAGNFDVWGQGTTVTVSS
VL: EIVLTQSPDFQSVTPKEKVTITCRASQSISNNLQWYQQKPDQSPKLLIKYASQSISGIPSRFSGSGSGTDFTLTINSLEAEDAATYLCQQSNSWPRTFGQGTKVEIKR
notes: IgG1; expressed in CHO-K1, purified on Protein A
B2: anti-hTfR antibody No. 3 (antibody, V domains shown)
VH: EVQLQESGAELVRPGTSVKISCKASGYTFMNYWLGWVKQRPGHGLEWIGDIYPGGDYPTYSEKFKVKAILTADTSSSSVYLHLSSLTSEDSAVYFCARSGNYDEVAYWGQGTLVTVST
VL: DIVMTQTTLSLPVSLGDQASISCRSSQSLVHSNGNTYLHWYLQKPGQSPKLLIYKVSNRFSGVPDRFSGSGSGTDFTLKISRVEAEDLGVFFCSQSTHVPWTFGGGTKLEIKR
notes: Mouse hybridoma antibody purified on Protein G; also called mouse anti-hTfR antibody No. 3; product of Clone 3 line
B3: hBDNF-anti-hTfR antibody 5 (other)
chain: HSDPARRGELSVCDSISEWVTAADKKTAVDMSGGTVTVLEKVPVSKGQLKQYFYETKCNPMGYTKEGCRGIDKRHWNSQCRTTQSYVRALTMDSKKRIGWRFIRIDTSCVCTLTIKRGRGSGGGGSGGGGSGGGGSGGGGSGGGGSEVQLVQSGAEVKKPGESLKISCKGSGYSFTNYWLGWVRQMPGKGLEWMGDIYPGGDYPTYSEKFKVQVTISADKSISTAYLQWSSLKASDTAMYYCARSGNYDEVAYWGQGTLVTVSSGGGGSGGGGSGGGGSDIVMTQTPLSLSVTPGQPASISCRSSQSLVHSNGNTYLHWYLQKPGQSPQLLIYKVSNRFSGVPDRFSGSGSGTDFTLKISRVEAEDVGVYYCSQSTHVPWTFGQGTKVEIK
B4: anti-hTfR antibody No. 14 (antibody, V domains shown)
VH: EVQLQESGPELLKPGASVKMSCKASGYAFTGYVIHWVKQKPGQGLEWIGFLNPHKDDSEYNEKFRGKATLTSDKSSSTAYMDLSSLTSEDSAVYYCARGYYYYSMDYWGQGTSVTVSS
VL: DIVLTQTPVIMSAYPGEKVTLTCSASSNINSIHWYQQKPGTSPKRWIYDTSNLASGVPARFSGSGSGTSYSLTISSMEAEDAASYYCHQRSGYPFTFGSGTKLEIK
notes: Mouse hybridoma antibody purified on Protein G; also called mouse anti-hTfR antibody No. 14; product of Clone 14 line
B5: humanized anti-hTfR antibody No. 1 (antibody, human IgG1, kappa, V domains shown)
VH: EVQLVESGGGLVQPGGSLRLSCAASGLTFSNYGMSWVRQAPGKGLELVANINTNGGSTYYPDSVKGRFTISRDNAKNSLYLQMNSLRAEDTAVYYCTNNRYDEDYWGQGTLVTVSS
VL: DIQVTQSPSFLSASVGDRVTITCKASQDVNSAVAWFQQKPGKAPKLLIYWTSTRHTGVPDRFSGSGSGTVYTLTISSLQPEDFATYYCQQHYSTPRTFGGGTKVEIKR
notes: as for B1
B6: hBDNF-anti-hTfR antibody 7 (other)
heavy: HSDPARRGELSVCDSISEWVTAADKKTAVDMSGGTVTVLEKVPVSKGQLKQYFYETKCNPMGYTKEGCRGIDKRHWNSQCRTTQSYVRALTMDSKKRIGWRFIRIDTSCVCTLTIKRGRGSGGGGSGGGGSGGGGSGGGGSGGGGSEVQLVQSGAEVKKPGESLKISCKGSGYSFTNYWLGWVRQMPGKGLEWMGDIYPGGDYPTYSEKFKVQVTISADKSISTAYLQWSSLKASDTAMYYCARSGNYDEVAYWGQGTLVTVSSASTKGPSVFPLAPSSKSTSGGTAALGCLVKDYFPEPVTVSWNSGALTSGVHTFPAVLQSSGLYSLSSVVTVPSSSLGTQTYICNVNHKPSNTKVDKKVEPKSCDKTHT
light: DIVMTQTPLSLSVTPGQPASISCRSSQSLVHSNGNTYLHWYLQKPGQSPQLLIYKVSNRFSGVPDRFSGSGSGTDFTLKISRVEAEDVGVYYCSQSTHVPWTFGQGTKVEIKRTVAAPSVFIFPPSDEQLKSGTASVVCLLNNFYPREAKVQWKVDNALQSGNSQESVTEQDSKDSTYSLSSTLTLSKADYEKHKVYACEVTHQGLSSPVTKSFNRGEC
B7: humanized anti-hTfR antibody No. 3-3 (antibody, human IgG1, kappa)
heavy: not shown
light: DIVMTQTPLSLPVTPGEPASISCRSSQSLVHSNGNTYLHWYLQKPGQSPQLLIYKVSNRFSGVPDRFSGSGSGTDFTLKISRVEAEDVGVYYCSQSTHVPWTFGQGTRLEIKRTVAAPSVFIFPPSDEQLKSGTASVVCLLNNFYPREAKVQWKVDNALQSGNSQESVTEQDSKDSTYSLSSTLTLSKADYEKHKVYACEVTHQGLSSPVTKSFNRGEC
notes: IgG1
B8: humanized anti-hTfR antibody No. 3-4 (antibody, human IgG1, kappa, V domains shown)
VH: EVQLVQSGAEVKKPGESLKISCKGSGYSFTNYWLGWVRQMPGKGLEWMGDIYPGGDYPTYSEKFKVQVTISADKSISTAYLQWSSLKASDTAMYYCARSGNYDEVAYWGQGTLVTVSS
VL: DIVMTQTPLSLSVTPGQPASISCRSSQSLVHSNGNTYLHWYLQKPGQSPQLLIYKVSNRFSGVPDRFSGSGSGTDFTLKISRVEAEDVGVFFCSQSTHVPWTFGQGTKVEIKR
notes: IgG1
B9: humanized anti-hTfR antibody No. 3-2 (antibody, human IgG1, kappa)
heavy: not shown
light: DIVMTQSPLSLPVTPGEPASISCRSSQSLVHSNGNTYLHWYLQKPGQSPQLLIYKVSNRFSGVPDRFSGSGSGTDFTLKISRVEAEDVGVYYCSQSTHVPWTFGQGTKVEIKRTVAAPSVFIFPPSDEQLKSGTASVVCLLNNFYPREAKVQWKVDNALQSGNSQESVTEQDSKDSTYSLSSTLTLSKADYEKHKVYACEVTHQGLSSPVTKSFNRGEC
notes: IgG1

Tests used:
[1] = biological target: T1, recombinant monkey TfR (r monkey TfR: …); assay: BLI (Octet RED96), method of Example 7, His-tagged TfR ECD on Ni-NTA sensor
Protocol: (§1) Each of the antibodies (anti-hTfR antibody Nos. 1 to 14) purified above was subjected to 2-fold dilution steps with HBS-P+(10 mM HEPES containing 150 mM NaCl, 50 μM EDTA and 0.05% Surfactant P20) to prepare antibody solutions of 7 different concentrations, 0.78125 to 50 nM (0.117 to 7.5 μg/mL). These antibody solutions were used as the sample solutions. The r human and r monkey TfRs were respectively diluted with HBS-P+ to prepare 25 μg/mL solutions, which were used as r human TfR-ECD (Histag) solution and r monkey TfR-ECD (Histag) solution, respectively.
(§2) Each of the sample solutions prepared above by 2-fold dilution steps was added, 200 μL/well, to a 96-well plate, black (Greiner Bio-One Inc.). Each of the r human TfR-ECD (Histag) solution and the r monkey TfR-ECD (Histag) solutions prepared above was added, 200 μL/well, to predetermined wells. To respective wells for baseline, dissociation and washing were added HBS-P+, 200 μL/well. To wells for regeneration were added 10 mM Glycine-HCl, pH 1.7, 200 μL/well. To wells for activation was added 0.5 mM NiCl₂ solution, 200 μL/well. The plate and biosensor (Biosensor/Ni-NTA: ForteBio Inc., a division of Pall Corporation) were set in the prescribed positions of Octet RED96. […] The measurement was performed at 25 to 30° C.
(§3) The affinity of the humanized anti-hTfR antibodies obtained in Example 13 to human and monkey TfRs was measured by the method described in Example 7.

[2] = biological target: T2, recombinant human TfR (r human TfR: Sino Biological Inc.) (human, UniProt P02786 89-760); assay: as above
T2 construct: Bought product; also called r human TfR-ECD (Histag); hTfR; not shown: histidine tag attached to the N-terminus
Protocol: as §1, §2, §3

[3] = biological target: T1, recombinant monkey TfR (r monkey TfR: …); assay: BLI (Octet RED96), His-tagged TfR ECD loaded on Ni-NTA sensor, antibody as analyte
Protocol: (§4) By measuring the variations of this shift between the interfering waves, determination of the number of the molecules bound to the layer of the biomolecules immobilized to the sensor tip surface and kinetic analysis of it can be performed in real time. The measurement was performed according generally to the operating manual attached to Octet RED96. As a human TfR, a recombinant human TfR (r human TfR: Sino Biological Inc.) was used, which had the amino acid sequence of the hTfR extracellular region, i.e., the cysteine residue at the position 89th from the N-terminal side to the phenylalanine at the C-terminus, of the amino acid sequence set forth as SEQ ID NO:1, with a histidine tag attached to the N-terminus. As a monkey TfR, a recombinant monkey TfR (r monkey TfR: Sino Biological Inc.) was used, which had the amino acid sequence of the cynomolgus monkey TfR extracellular region, i.e., the cysteine residue at the position 89th from the N-terminal side to the phenylalanine at the C-terminus, of the amino acid sequence set forth as SEQ ID NO:2, with a histidine tag attached to the N-terminus.
as §1
(§5) Each of the sample solutions prepared above by 2-fold dilution steps was added, 200 μL/well, to a 96-well plate, black (Greiner Bio-One Inc.). Each of the r human TfR-ECD (Histag) solution and the r monkey TfR-ECD (Histag) solutions prepared above was added, 200 μL/well, to predetermined wells. To respective wells for baseline, dissociation and washing were added HBS-P+, 200 μL/well. To wells for regeneration were added 10 mM Glycine-HCl, pH 1.7, 200 μL/well. To wells for activation was added 0.5 mM NiCl₂ solution, 200 μL/well. The plate and biosensor (Biosensor/Ni-NTA: ForteBio Inc., a division of Pall Corporation) were set in the prescribed positions of Octet RED96.

[4] = biological target: T2, recombinant human TfR (r human TfR: …); assay: as above
Protocol: as §4, §1, §5

[5] = biological target: human TrkB (GenBank Acc. No. NP_001018074.1) expressed in CHO cells (human, UniProt Q16620 32-822); assay: cell-based or functional assay
Chain of human TrkB (GenBank Acc. No. NP_001018074.1) expressed in CHO cells (Q16620 32-822): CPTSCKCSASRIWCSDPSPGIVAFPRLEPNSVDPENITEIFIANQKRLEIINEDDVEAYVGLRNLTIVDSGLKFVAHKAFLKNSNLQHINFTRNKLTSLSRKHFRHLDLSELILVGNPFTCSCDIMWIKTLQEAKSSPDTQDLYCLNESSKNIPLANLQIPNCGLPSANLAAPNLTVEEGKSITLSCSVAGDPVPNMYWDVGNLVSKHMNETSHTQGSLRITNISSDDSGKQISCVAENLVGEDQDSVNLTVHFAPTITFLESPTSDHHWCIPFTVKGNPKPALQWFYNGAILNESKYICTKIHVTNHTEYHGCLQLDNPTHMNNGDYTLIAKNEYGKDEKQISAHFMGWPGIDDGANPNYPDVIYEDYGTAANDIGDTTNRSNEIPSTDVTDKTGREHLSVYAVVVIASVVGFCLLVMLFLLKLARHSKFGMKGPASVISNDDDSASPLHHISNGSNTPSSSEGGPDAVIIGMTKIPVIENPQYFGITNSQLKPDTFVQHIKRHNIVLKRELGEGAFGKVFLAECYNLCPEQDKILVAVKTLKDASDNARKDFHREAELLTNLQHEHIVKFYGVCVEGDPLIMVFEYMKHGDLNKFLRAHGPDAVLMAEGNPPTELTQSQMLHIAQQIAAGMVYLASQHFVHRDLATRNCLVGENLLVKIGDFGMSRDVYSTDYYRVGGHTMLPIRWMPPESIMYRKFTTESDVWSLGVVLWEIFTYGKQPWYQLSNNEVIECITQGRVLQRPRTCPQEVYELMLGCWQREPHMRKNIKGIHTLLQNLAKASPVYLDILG

Binder | Kd [1] [nM] | koff [1] [s⁻¹] | kon [1] [M⁻¹ s⁻¹] | Kd [2] [nM] | koff [2] [s⁻¹] | kon [2] [M⁻¹ s⁻¹] | Kd [3] [nM] | koff [3] [s⁻¹] | kon [3] [M⁻¹ s⁻¹] | Kd [4] [nM] | koff [4] [s⁻¹] | kon [4] [M⁻¹ s⁻¹] | BDNF activity (TrkB agonistic EC50, nmol/L) [5] [nmol/L]
B1 | 0.0755 | 3.67e-05 | 487000 | < 0.001 | < 1e-07 | 197000 | – | – | – | – | – | – | –
B2 | – | – | – | – | – | – | < 0.001 | < 1e-07 | 389000 | < 0.001 | < 1e-07 | 653000 | –
B3 | – | – | – | – | – | – | – | – | – | – | – | – | 0.092
B4 | – | – | – | – | – | – | 0.0516 | 3.61e-05 | 700000 | < 0.001 | < 1e-07 | 961000 | –
B5 | < 0.001 | < 1e-07 | 253000 | < 0.001 | < 1e-07 | 393000 | – | – | – | – | – | – | –
B6 | – | – | – | – | – | – | – | – | – | – | – | – | 0.23
B7 | 1.91 | 0.000932 | 488000 | 0.0209 | 1.25e-05 | 600000 | – | – | – | – | – | – | –
B8 | 0.26 | 0.000135 | 519000 | < 0.001 | < 1e-07 | 1.01e+06 | – | – | – | – | – | – | –
B9 | 1.77 | 0.000876 | 495000 | 0.0239 | 1.45e-05 | 606000 | – | – | – | – | – | – | –
